Test results as given in paper PMC6763431, “Methionine in a protein hydrophobic core drives tight interactions required for assembly of spider silk” (Nature Communications, 2019).

Assays:
[1] = biological target: T1, AttoOxa11-modified L6-NTD mutant Q50C (Euprosthenops australis, AttoOxa11 (maleimide derivative) on the thiol of the engineered cysteine at position 50); test: MST; 40 nM AttoOxa11-modified L6-NTD Q50C with increasing concentrations of unlabelled L6-NTD, standard untreated capillaries, 50% heating power; bimolecular binding isotherm (pseudo-dimerization); conditions: both partners purified
T1 chain: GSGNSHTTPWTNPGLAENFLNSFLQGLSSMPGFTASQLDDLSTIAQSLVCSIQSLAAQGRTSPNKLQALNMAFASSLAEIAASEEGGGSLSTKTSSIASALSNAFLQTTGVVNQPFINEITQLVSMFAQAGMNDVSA

[2] = biological target: the molecule itself; test: SEC; high-resolution SEC with Trp fluorescence detection, Superdex-75 Increase 10/300, 0.8 ml/min, 20 mM MES, pH 6.0, ionic strength 20 mM (KCl); elution volume against protein concentration fitted to a monomer/dimer equilibrium; dimer to monomers
[3] = biological target: T2, wild-type N-terminal domain of major ampullate spidroin 1 (MaSp1) from Euprosthenops australis (Euprosthenops australis), Q05H60; test: SEC-MALS; 20 mM MES, pH 6.0, ionic strength 60 mM (KCl), dimer conditions; µM sample concentration; dimer to monomers; conditions: remark: other sources report otherwise
T2 chain: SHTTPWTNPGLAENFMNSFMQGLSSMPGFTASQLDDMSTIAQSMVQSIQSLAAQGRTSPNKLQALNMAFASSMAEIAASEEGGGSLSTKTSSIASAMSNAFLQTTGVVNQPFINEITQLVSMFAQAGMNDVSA

B1: L6-NTD (MaSp1 NTD from E. australis with all six core Met mutated to Leu) (domain or fragment)
chain: GSGNSHTTPWTNPGLAENFLNSFLQGLSSMPGFTASQLDDLSTIAQSLVQSIQSLAAQGRTSPNKLQALNMAFASSLAEIAASEEGGGSLSTKTSSIASALSNAFLQTTGVVNQPFINEITQLVSMFAQAGMNDVSA
Kd [1]: 3600 ± 1800 nM
Kd [2]: 1100 nM

B2: wild-type N-terminal domain of major ampullate spidroin 1 (MaSp1) from Euprosthenops australis, Q05H60 24-156 (domain or fragment)
chain: SHTTPWTNPGLAENFMNSFMQGLSSMPGFTASQLDDMSTIAQSMVQSIQSLAAQGRTSPNKLQALNMAFASSMAEIAASEEGGGSLSTKTSSIASAMSNAFLQTTGVVNQPFINEITQLVSMFAQAGMNDVSA
stoichiometry N [3]: 2
